In patent publication US9713645B2, “Short interference RNA gene delivery system for systemic circulation” (INDUSTRY-UNIVERSITY COOPERATION FOUNDATION HANYANG …, priority 2012, dated 2017):

Experiments:
[1] = system: cells; experiment: Intracellular transfection efficiency of D-R9 structures complexed with luciferase DNA; format: cell-based; conditions: complexes with luciferase DNA, charge ratio 1:5; FIG. 4
Description: In the PEG-R9 structure, PEG was attached to C-(D-R9)-C. To confirm whether the C-(D-R9)-C structure was optimum, the C-(D-R9)-C structure was compared with G-(D-R9)-G, G-(D-R9)-C, and C-(D-R9)-G structures. Each of the G-(D-R9)-G, G-(D-R9)-C, C-(D-R9)-G, and C-(D-R9)-C delivery systems formed complexes with luciferase DNA in a charge ratio of 1:5. The intracellular transfection efficiencies of the complexes into cells were evaluated.

[2] = system: SCC7 cells; experiment: MTT assay for cell viability; format: cell-based; conditions: FIG. 6
Description: Cell viability was measured by MTT [3-(4,5-dimethylthiazol-2-yl)-2,5-diphenyltetrazolium bromide] assay.
SCC7 cells were incubated in a 24-well plate and treated with R9, PEG-R9 complexes, and PEI complexes in the specified charge ratios. 48 h after transfection, 50 μl of MTT reagent and 500 μl of a medium were added to each well, followed by culture at 37° C. for 3 h. After removal of the culture media, 500 μl of dimethyl sulfoxide (DMSO) was added to each well, followed by culture at room temperature for 20 min. The absorbance was measured at 570 nm.

[3] = system: SCC7 cells; experiment: Luciferase assay for gene expression efficiency; format: cell-based; conditions: plasmid luciferase 4 μg, charge ratio 12, 48 h, FIG. 6
Description: In this example, luciferase gene expression was measured using a luciferase assay kit and cell viability was analyzed by MTT assay.
A luciferase assay kit was purchased from Promega (USA). A DC protein assay kit and a bovine serum albumin standard were purchased from Bio-Rad Laboratories (USA). SCC7 cells were seeded onto a 24-well plate at 2×10^4 cells/well. 24 h after seeding, the cells were transfected with plasmid luciferase (4 μg)/PEG-R9 complexes (charge ratio 12).
PEI complexes in a charge ratio of 8 were used as control. After 48-h incubation, the cells was washed with PBS and treated with 150 μl of a 1× cell lysis buffer reagent for 20 min. The cell lysate was obtained by scrapping, transferred to a 1.5 ml microtube, and centrifuged at 13,000 rpm for 3 min. The luminescence values of the cell lysate were measured using a 96-well plate photometer (Berthold Detection Systems, Germany) with a 20 s integration time and were expressed as relative luminescence units (RLU) per mg of cell protein.
Proteins were determined with the DC protein assay kit using the bovine serum albumin standard. Based on the above procedure, PEG500 and PEG1000 were compared to find which one would be most optimal.

[4] = Sizes and zeta potentials of siVEGF conjugates with different delivery systems; format: physicochemical; conditions: FIG. 7
Description: siVEGF was conjugated with different kinds of delivery systems. The sizes and zeta potentials of the conjugates were analyzed to find which delivery system would be optimal for siRNA delivery. A group of cys-R9-cys, PEG-R9, and PEG-cys-R9-cys delivery systems and a group of PEG-cys-R9-cys, PEG-TAT, and PEG-cys-TAT-cys delivery systems were used, and their mean diameters were measured and compared.

Substance	intracellular transfection efficiency [1]	cytotoxicity (in words) ([2]; 48 h after transfection)	cell viability [2]	intracellular gene delivery efficiency by luciferase assay [3]	particle size compared with the PEG-unbound delivery system [4]
Cys-(D-R9)-Cys [C-(D-R9)-C]	high transfection efficiencies				
PEG-Cys-(D-R9)-Cys [PEG-R9]		much lower than the other gene delivery systems	at least 95%	efficiently deliver the gene into the cells	smaller
